# Target: T1, biotinylated CD59 (Homo sapiens, UniProt P13987)
# T1 construct: Recombinant soluble human CD59 with an additional C-terminal cysteine residue
# T1 sequence (P13987 26-102 limits assumed): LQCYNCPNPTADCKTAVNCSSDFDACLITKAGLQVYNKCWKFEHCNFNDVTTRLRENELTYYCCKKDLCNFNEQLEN
# Experiment: mRNA-display cyclic peptide screen against CD59-biotin, NGS abundance after 6th selection round
# Conditions: for Percentage Seq I: counts normalised by total counts of sample Seq I; for Percentage Seq I / Percentage Seq II: percentage of the pool; for Percentage Seq I / Percentage Seq II / Percentage Average / Percentage of the pool, averaged across the two sequencing samples / Percentage of the pool, Seq I / Percentage of the pool, Seq II: sheet R6; for Percentage Seq II: counts normalised by total counts of sample Seq II; for Percentage Average: percentage of the pool averaged across the two sequencing samples; for Counts Seq I / Counts Seq II: raw NGS counts of peptide sequence; for Counts Seq I: sequencing sample Seq I; for Counts Seq I / Counts Seq II / Counts (raw counts for peptide sequence), Seq I / Counts (raw counts for peptide sequence), Seq II: sheet R6 (6th selection round); for Counts Seq II: sequencing sample Seq II; for Counts (raw counts for peptide sequence), Seq I: NGS sample Seq I; for Counts (raw counts for peptide sequence), Seq II: NGS sample Seq II; for Percentage of the pool, averaged across the two sequencing samples: average of Seq I and Seq II; for Percentage of the pool, Seq I: counts normalised by total counts of NGS sample Seq I; for Percentage of the pool, Seq II: counts normalised by total counts of NGS sample Seq II
# Summary of the method: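 Peptide–mRNA fusions were made by in vitro translation with a customised PURE express kit. The kit lacked release factor 1 and methionine and was supplemented with […] initiator tRNA carrying N-chloroacetyl-d-tyrosine. Thioether macrocycles were formed, then enriched and amplified over iterative rounds on CD59-biotin immobilised on streptavidin beads. NGS read counts per sequence were recorded after the 6th selection round.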
Sequence,Percentage Seq I [%],Percentage Seq II [%],Percentage Average [%],Counts Seq I,Counts Seq II,"Counts (raw counts for peptide sequence), Seq I","Counts (raw counts for peptide sequence), Seq II","Percentage of the pool, averaged across the two sequencing samples [%]","Percentage of the pool, Seq I [%]","Percentage of the pool, Seq II [%]"
QWNRWYGIDEL,0.075,0.070,0.072,329,30,,,,,
FVTGNRGHTRG,0.024,0.016,0.020,105,7,,,,,
PWTWGNRSSVRG,,,,,,49,10,0.017,0.011,0.023
LRGSYDYQLYFG,0.013,0.023,0.018,57,10,,,,,
CFRFRLNATSS,0.075,0.060,0.068,329,26,,,,,
ASWLPSPCKFS,,,,,,73,4,0.013,0.017,0.009
CYTYRSLDPQSV,,,,,,42,9,0.015,0.010,0.021
SWTWGNRSSVSG,,,,,,73,2,0.011,0.017,0.00464
CFSHRRLEYGV,0.045,0.046,0.046,197,20,,,,,
SAWGNRQIQYF,0.023,0.030,0.027,102,13,,,,,
CLRKTRDILSV,,,,,,65,6,0.014,0.015,0.014
SAWGNRQIQCY,,,,,,55,5,0.012,0.013,0.012
CAWGNRYTAYY,,,,,,68,5,0.014,0.016,0.012
CFSARAILDGGW,0.249,0.248,0.249,1089,107,,,,,
SAWGDRQIQYY,,,,,,64,6,0.014,0.015,0.014
YVRGDLYSVLG,,,,,,40,5,0.010,0.009,0.012
TLSTNRDLIRLLAAAAAAARTGGG,,,,,,57,9,0.017,0.013,0.021

Sequence,Percentage Seq I [%],Percentage Seq II [%],Percentage Average [%],Counts Seq I,Counts Seq II,"Counts (raw counts for peptide sequence), Seq I","Counts (raw counts for peptide sequence), Seq II","Percentage of the pool, averaged across the two sequencing samples [%]","Percentage of the pool, Seq I [%]","Percentage of the pool, Seq II [%]"
CFTHRLTDFGT,0.053,0.070,0.061,230,30,,,,,
FIRGNSTSVLFLRQRQRQLGRGAE,0.060,0.072,0.066,264,31,,,,,
CYGGRSFIYAWS,,,,,,47,6,0.012,0.011,0.014
STRRDRLGLTC,,,,,,57,9,0.017,0.013,0.021
CAWGNRHTAYY,0.018,0.030,0.024,80,13,,,,,
FVRGDLYSALG,,,,,,80,6,0.016,0.018,0.014
PAWGNRQIQYY,,,,,,58,3,0.010,0.013,0.007
FVTGNRDHTSG,,,,,,60,4,0.011,0.014,0.009
CFSQRLDRTSS,0.027,0.026,0.026,116,11,,,,,
FVMGNRDHTRG,0.017,0.023,0.020,76,10,,,,,
FRGRNDICTH,,,,,,73,8,0.018,0.017,0.019
CYGGRTYIYAWS,0.018,0.019,0.018,77,8,,,,,
CFASRLTIDAV,0.032,0.028,0.030,140,12,,,,,
CFSRRLAAGAI,,,,,,35,5,0.010,0.008,0.012
RVGSQFCAQL,,,,,,33,9,0.014,0.00754,0.021
CFSSRTSLISGV,,,,,,27,6,0.010,0.006,0.014

# Source: publication PMC12207370, “Macrocyclic Peptide Probes for Immunomodulatory Protein CD59: Potent Modulators of Bacterial Toxin Activity and Antibody‐Dependent Cytotoxicity” (Angewandte Chemie (International Ed. in English), 2025)
